Drawing on paper PMC12170907 (2025), this text covers Kd for one molecule.

The target in the test is Superfolder-GFP-tagged M-HBsAg (serotype ayw, genotype D3) (Hepatitis B virus (serotype ayw, …)). As to the kind of experiment: ELISA. (In general: In an ELISA, binding on a coated surface is turned into a signal by an enzyme label.)

B1: 3× HA-tagged FabHBC (Fab, V domains shown)
VH: ELQLVESGGGWVQPGGSQRLSCAASGRIFRSFYMSWVRQAPGKGLEWVATINQDGSEKLYVDSVKGRFTISRDNAKNSLFLQMNNLRVEDTAVYYCAAWSGNSGGMDVWGQGTTVSVSS
VL: SYELTQPPSVSVSPGQTVSIPCSGDKLGNKNVCWFQHKPGQSPVLVIYEVKYRPSGIPERFSGSNSGNTATLTISGTQAMDEAAYFCQTWDSTTVVFGGGTRLTVL
By Kd is commonly meant the concentration at which binding is half-saturated. B1 registered a Kd of 0.103 nM.
